Laboratory results taken from the Human Domainome abundance scans (Beltran et al. 2025).
± gives the uncertainty stated by the source.

B1: Unconventional myosin-Ie, residues 1051 to 1108; numbered along this chain, Q12965 (parent)
chain: PQVPQCKALYAYDAQDTDELSFNANDIIDIIKEDPSGWWTGRLRGKQGLFPNNYVTKI

Variants of: B1
Assay: abundance fitness (aPCA) (normalised: wild type 0, dead -1); higher = more abundant; growth selection in yeast, the domain comes from the species named
Conditions: Homo sapiens

Variant	abundance fitness
PQVPQCKALYAYDAQDTDELSFNANDIIGIIKEDPSGWWTGRLRGKQGLFPNNYVTKI [D29G]	-0.478 ± 0.045
PQVPQCKALYAYDAQDTDELSFNANDIIEIIKEDPSGWWTGRLRGKQGLFPNNYVTKI [D29E]	-0.072 ± 0.044
PQVPQCKALYAYDAQDTDELSFNANDIIDKIKEDPSGWWTGRLRGKQGLFPNNYVTKI [I30K]	-1.04 ± 0.17
PQVPQCKALYAYDAQDTDELSFNANDIIDLIKEDPSGWWTGRLRGKQGLFPNNYVTKI [I30L]	-0.077 ± 0.055
PQVPQCKALYAYDAQDTDELSFNANDIIDEIKEDPSGWWTGRLRGKQGLFPNNYVTKI [I30E]	-0.864 ± 0.069
PQVPQCKALYAYDAQDTRELSFNANDIIDIIKEDPSGWWTGRLRGKQGLFPNNYVTKI [D18R]	-0.065 ± 0.037
PQVPQCKALYAYDAQDTWELSFNANDIIDIIKEDPSGWWTGRLRGKQGLFPNNYVTKI [D18W]	-0.2 ± 0.042
PQVPQCKALYAYDAQDTDELSFNANDIIDIIKEDPSGWWTCRLRGKQGLFPNNYVTKI [G41C]	-0.813 ± 0.059
PQVPQCKALYAYDAQDTDELSFNANDIIDIIKEDPSGWWTGRLRGKQGLFPNNYPTKI [V55P]	-0.747 ± 0.28
PQVPQCKALYAYDAQDTDMLSFNANDIIDIIKEDPSGWWTGRLRGKQGLFPNNYVTKI [E19M]	-0.055 ± 0.076
PQVPQCKALYAYDAQDTDELSFNANDIIDIIKEDPSGWWTGRLREKQGLFPNNYVTKI [G45E]	-0.058 ± 0.035
PQVPQCKALYAYDAQDTDELSFNANDIIDIFKEDPSGWWTGRLRGKQGLFPNNYVTKI [I31F]	-0.462 ± 0.091
PQVPQCKALYAYDAQDTDELSFNANDIIDIWKEDPSGWWTGRLRGKQGLFPNNYVTKI [I31W]	-0.479 ± 0.042
PQVPQCKALYAYDAQDTDELSFNANDIIDIIKEDPSGWWTGLLRGKQGLFPNNYVTKI [R42L]	-0.161 ± 0.065
PQVPQCKALYAYDAQDTDELSFNANDIIDIIKEDPSGWWTGDLRGKQGLFPNNYVTKI [R42D]	-0.254 ± 0.072
PQVPQCKALYAYDAQDTDELSFNANDIIDIIKEDPSGWWTGNLRGKQGLFPNNYVTKI [R42N]	-0.005 ± 0.065
PQVPQCKALYAYDAQDTDELSFNANDIIDIIKEDPSGWWTGMLRGKQGLFPNNYVTKI [R42M]	-0.394 ± 0.14
PQVPQCKALYAYDAQDTDELSFNANDIIDIIKEDPSGWWTGQLRGKQGLFPNNYVTKI [R42Q]	-0.028 ± 0.038
PQVPQCKALYAYDAQDTDELSFNANDIIDIIKEDPSGWWTGRLRGCQGLFPNNYVTKI [K46C]	-0.099 ± 0.051
PQVPQCKALYAYDAQDTDELSFNANDIIDIIKEDPSGWWTGRKRGKQGLFPNNYVTKI [L43K]	-0.453 ± 0.075
PFVPQCKALYAYDAQDTDELSFNANDIIDIIKEDPSGWWTGRLRGKQGLFPNNYVTKI [Q2F]	-0.597 ± 0.46
PPVPQCKALYAYDAQDTDELSFNANDIIDIIKEDPSGWWTGRLRGKQGLFPNNYVTKI [Q2P]	-0.062 ± 0.069
PWVPQCKALYAYDAQDTDELSFNANDIIDIIKEDPSGWWTGRLRGKQGLFPNNYVTKI [Q2W]	-0.12 ± 0.05

Variant	abundance fitness
PIVPQCKALYAYDAQDTDELSFNANDIIDIIKEDPSGWWTGRLRGKQGLFPNNYVTKI [Q2I]	-0.176 ± 0.16
PNVPQCKALYAYDAQDTDELSFNANDIIDIIKEDPSGWWTGRLRGKQGLFPNNYVTKI [Q2N]	0.068 ± 0.1
PHVPQCKALYAYDAQDTDELSFNANDIIDIIKEDPSGWWTGRLRGKQGLFPNNYVTKI [Q2H]	-0.208 ± 0.34
PQVPQCKALYAYDAQDCDELSFNANDIIDIIKEDPSGWWTGRLRGKQGLFPNNYVTKI [T17C]	-0.128 ± 0.063
PQVPQCKALYAYDAQDEDELSFNANDIIDIIKEDPSGWWTGRLRGKQGLFPNNYVTKI [T17E]	-0.272 ± 0.09
PQVPQCKALYAYDAQDTDELSFNANDIIDIIKEDPSGWWTGRLRGKQGLFPNNKVTKI [Y54K]	-0.158 ± 0.049
PQVPQCKALYAYDAQDTDELSFNANDIIDIIKEDPSGWWTGRLRGKQGLFPNNMVTKI [Y54M]	-0.16 ± 0.085
PQVPQCKALYAYDAQDTDEQSFNANDIIDIIKEDPSGWWTGRLRGKQGLFPNNYVTKI [L20Q]	-1.12 ± 0.15
PQVPQCKALYAYDAQDTDEDSFNANDIIDIIKEDPSGWWTGRLRGKQGLFPNNYVTKI [L20D]	-0.893 ± 0.17
PQVPQCKALYPYDAQDTDELSFNANDIIDIIKEDPSGWWTGRLRGKQGLFPNNYVTKI [A11P]	0.019 ± 0.062
PQVPQCKALYQYDAQDTDELSFNANDIIDIIKEDPSGWWTGRLRGKQGLFPNNYVTKI [A11Q]	0.045 ± 0.062
PQVPQCKWLYAYDAQDTDELSFNANDIIDIIKEDPSGWWTGRLRGKQGLFPNNYVTKI [A8W]	-1.03 ± 0.31
PQVPQCKALYAYDAQDTDELSFNANDIIDIIKEDPSGWWTGRLRGKQGLFPANYVTKI [N52A]	0.03 ± 0.049
PQVPQCKALYAYDAQDTDELSFNANDIIDIIKEDPSGWWTGRLRGKQGLFPCNYVTKI [N52C]	-0.515 ± 0.23
PQVPQCKALYAYDAQDTDELSFNANDIIDIIKEDPSGWWTGRLRGKQGLFPNLYVTKI [N53L]	-0.188 ± 0.054
PQVPQCKALYAYDAQDTDELSFNANDIIDIIKEDPSVWWTGRLRGKQGLFPNNYVTKI [G37V]	-0.781 ± 0.041
PQVPQCKALYAYDAQDTDELSFNANDIIDIIKEDPSGWWTGRLRGKQGLFLNNYVTKI [P51L]	-0.198 ± 0.057
PQVPQCKALYAYDAQDTDELSFNANDIIDIIKEDPSGWWTGRLRGKQGLFQNNYVTKI [P51Q]	-0.438 ± 0.14
PQVPQCKALYAYDAQDTDELSFNANDIIDIIKEDPSGWWTGRLRGKQGLFYNNYVTKI [P51Y]	-0.425 ± 0.48
PQVPQCKALYAYDAQDTDELSFNANDIIDIIKEHPSGWWTGRLRGKQGLFPNNYVTKI [D34H]	-0.264 ± 0.23
PQVPQCKALYAYDAQDTDELSFNANDIIDIIKEDPSGWWTGRLRGKQGLFPNNYVTKF [I58F]	-0.116 ± 0.084
PQVPQCKALYAYDAQDTDELSFNANDIIDIIKEDPSGWWTGRLRGKQGLFPNNYVTKS [I58S]	-0.15 ± 0.049
PQVPQCKALYAYDAQDTDELSFNANDIIDIIKEDPSGWWTGRLRGKQGLFPNNYVTKT [I58T]	-0.484 ± 0.25
